From US20150344540A1, “NOVEL GLP-1 RECEPTOR AGONISTS WITH CHOLESTEROL EFFLUX ACTIVITY” (NOVO NORDISK A/S, priority 2012, published 2015)
Where no end group is shown, it is not given here. [ ]: non-standard residue; d: D form. Aib = CC(C)(N)C(=O)O

B1: [Aib8,Glu23,Val25,Gln30,His31,Glu34,Lys35,Leu36,Lys37]-GLP-1-(7-37)-peptidyl-Glu-Phe-Leu amide (peptide)
peptide: H[Aib]EGTFTSDVSSYLEGEAVKEFIQHLVEKLKEFL-NH2
modifications: N-terminus assumed
SMILES: CC[C@H](C)[C@H](NC(=O)[C@H](Cc1ccccc1)NC(=O)[C@H](CCC(=O)O)NC(=O)[C@H](CCCCN)NC(=O)[C@@H](NC(=O)[C@H](C)NC(=O)[C@H](CCC(=O)O)NC(=O)CNC(=O)[C@H](CCC(=O)O)NC(=O)[C@H](CC(C)C)NC(=O)[C@H](Cc1ccc(O)cc1)NC(=O)[C@H](CO)NC(=O)[C@H](CO)NC(=O)[C@@H](NC(=O)[C@H](CC(=O)O)NC(=O)[C@H](CO)NC(=O)[C@@H](NC(=O)[C@H](Cc1ccccc1)NC(=O)[C@@H](NC(=O)CNC(=O)[C@H](CCC(=O)O)NC(=O)C(C)(C)NC(=O)[C@@H](N)Cc1c[nH]cn1)[C@@H](C)O)[C@@H](C)O)C(C)C)C(C)C)C(=O)N[C@@H](CCC(N)=O)C(=O)N[C@@H](Cc1c[nH]cn1)C(=O)N[C@@H](CC(C)C)C(=O)N[C@H](C(=O)N[C@@H](CCC(=O)O)C(=O)N[C@@H](CCCCN)C(=O)N[C@@H](CC(C)C)C(=O)N[C@@H](CCCCN)C(=O)N[C@@H](CCC(=O)O)C(=O)N[C@@H](Cc1ccccc1)C(=O)N[C@@H](CC(C)C)C(N)=O)C(C)C
B2: [Aib8,Glu23,Val25,Leu33,Glu34,Lys35,Aib36,Lys37]-GLP-1-(7-37)-peptidyl-Glu-Phe-Leu amide (peptide)
peptide: H[Aib]EGTFTSDVSSYLEGEAVKEFIAWLLEK[Aib]KEFL-NH2
modifications: N-terminus assumed
SMILES: CC[C@H](C)[C@H](NC(=O)[C@H](Cc1ccccc1)NC(=O)[C@H](CCC(=O)O)NC(=O)[C@H](CCCCN)NC(=O)[C@@H](NC(=O)[C@H](C)NC(=O)[C@H](CCC(=O)O)NC(=O)CNC(=O)[C@H](CCC(=O)O)NC(=O)[C@H](CC(C)C)NC(=O)[C@H](Cc1ccc(O)cc1)NC(=O)[C@H](CO)NC(=O)[C@H](CO)NC(=O)[C@@H](NC(=O)[C@H](CC(=O)O)NC(=O)[C@H](CO)NC(=O)[C@@H](NC(=O)[C@H](Cc1ccccc1)NC(=O)[C@@H](NC(=O)CNC(=O)[C@H](CCC(=O)O)NC(=O)C(C)(C)NC(=O)[C@@H](N)Cc1c[nH]cn1)[C@@H](C)O)[C@@H](C)O)C(C)C)C(C)C)C(=O)N[C@@H](C)C(=O)N[C@@H](Cc1c[nH]c2ccccc12)C(=O)N[C@@H](CC(C)C)C(=O)N[C@@H](CC(C)C)C(=O)N[C@@H](CCC(=O)O)C(=O)N[C@@H](CCCCN)C(=O)NC(C)(C)C(=O)N[C@@H](CCCCN)C(=O)N[C@@H](CCC(=O)O)C(=O)N[C@@H](Cc1ccccc1)C(=O)N[C@@H](CC(C)C)C(N)=O
B3: [Aib8,Glu23,Val25,Lys30,Glu34,Lys35,Aib36,Lys37]-GLP-1-(7-37)-peptidyl-Glu-Phe-Leu amide (peptide)
peptide: H[Aib]EGTFTSDVSSYLEGEAVKEFIKWLVEK[Aib]KEFL-NH2
modifications: N-terminus assumed
SMILES: CC[C@H](C)[C@H](NC(=O)[C@H](Cc1ccccc1)NC(=O)[C@H](CCC(=O)O)NC(=O)[C@H](CCCCN)NC(=O)[C@@H](NC(=O)[C@H](C)NC(=O)[C@H](CCC(=O)O)NC(=O)CNC(=O)[C@H](CCC(=O)O)NC(=O)[C@H](CC(C)C)NC(=O)[C@H](Cc1ccc(O)cc1)NC(=O)[C@H](CO)NC(=O)[C@H](CO)NC(=O)[C@@H](NC(=O)[C@H](CC(=O)O)NC(=O)[C@H](CO)NC(=O)[C@@H](NC(=O)[C@H](Cc1ccccc1)NC(=O)[C@@H](NC(=O)CNC(=O)[C@H](CCC(=O)O)NC(=O)C(C)(C)NC(=O)[C@@H](N)Cc1c[nH]cn1)[C@@H](C)O)[C@@H](C)O)C(C)C)C(C)C)C(=O)N[C@@H](CCCCN)C(=O)N[C@@H](Cc1c[nH]c2ccccc12)C(=O)N[C@@H](CC(C)C)C(=O)N[C@H](C(=O)N[C@@H](CCC(=O)O)C(=O)N[C@@H](CCCCN)C(=O)NC(C)(C)C(=O)N[C@@H](CCCCN)C(=O)N[C@@H](CCC(=O)O)C(=O)N[C@@H](Cc1ccccc1)C(=O)N[C@@H](CC(C)C)C(N)=O)C(C)C
B4: [Aib8,Glu23,Val25,Val29,Glu34,Lys35,Aib36,Lys37]-GLP-1-(7-37)-peptidyl-Glu-Phe-Leu amide (peptide)
peptide: H[Aib]EGTFTSDVSSYLEGEAVKEFVAWLVEK[Aib]KEFL-NH2
modifications: N-terminus assumed
SMILES: CC(C)C[C@H](NC(=O)[C@H](Cc1ccccc1)NC(=O)[C@H](CCC(=O)O)NC(=O)[C@H](CCCCN)NC(=O)C(C)(C)NC(=O)[C@H](CCCCN)NC(=O)[C@H](CCC(=O)O)NC(=O)[C@@H](NC(=O)[C@H](CC(C)C)NC(=O)[C@H](Cc1c[nH]c2ccccc12)NC(=O)[C@H](C)NC(=O)[C@@H](NC(=O)[C@H](Cc1ccccc1)NC(=O)[C@H](CCC(=O)O)NC(=O)[C@H](CCCCN)NC(=O)[C@@H](NC(=O)[C@H](C)NC(=O)[C@H](CCC(=O)O)NC(=O)CNC(=O)[C@H](CCC(=O)O)NC(=O)[C@H](CC(C)C)NC(=O)[C@H](Cc1ccc(O)cc1)NC(=O)[C@H](CO)NC(=O)[C@H](CO)NC(=O)[C@@H](NC(=O)[C@H](CC(=O)O)NC(=O)[C@H](CO)NC(=O)[C@@H](NC(=O)[C@H](Cc1ccccc1)NC(=O)[C@@H](NC(=O)CNC(=O)[C@H](CCC(=O)O)NC(=O)C(C)(C)NC(=O)[C@@H](N)Cc1c[nH]cn1)[C@@H](C)O)[C@@H](C)O)C(C)C)C(C)C)C(C)C)C(C)C)C(N)=O
B5: [Aib8,Glu23,Val25,Glu34,Lys35,Val36,Lys37]-GLP-1-(7-37)-peptidyl-Glu-Phe-Leu amide (peptide)
peptide: H[Aib]EGTFTSDVSSYLEGEAVKEFIAWLVEKVKEFL-NH2
modifications: N-terminus assumed
SMILES: CC[C@H](C)[C@H](NC(=O)[C@H](Cc1ccccc1)NC(=O)[C@H](CCC(=O)O)NC(=O)[C@H](CCCCN)NC(=O)[C@@H](NC(=O)[C@H](C)NC(=O)[C@H](CCC(=O)O)NC(=O)CNC(=O)[C@H](CCC(=O)O)NC(=O)[C@H](CC(C)C)NC(=O)[C@H](Cc1ccc(O)cc1)NC(=O)[C@H](CO)NC(=O)[C@H](CO)NC(=O)[C@@H](NC(=O)[C@H](CC(=O)O)NC(=O)[C@H](CO)NC(=O)[C@@H](NC(=O)[C@H](Cc1ccccc1)NC(=O)[C@@H](NC(=O)CNC(=O)[C@H](CCC(=O)O)NC(=O)C(C)(C)NC(=O)[C@@H](N)Cc1c[nH]cn1)[C@@H](C)O)[C@@H](C)O)C(C)C)C(C)C)C(=O)N[C@@H](C)C(=O)N[C@@H](Cc1c[nH]c2ccccc12)C(=O)N[C@@H](CC(C)C)C(=O)N[C@H](C(=O)N[C@@H](CCC(=O)O)C(=O)N[C@@H](CCCCN)C(=O)N[C@H](C(=O)N[C@@H](CCCCN)C(=O)N[C@@H](CCC(=O)O)C(=O)N[C@@H](Cc1ccccc1)C(=O)N[C@@H](CC(C)C)C(N)=O)C(C)C)C(C)C
B6: [Aib8,Glu23,Val25,Glu34,Lys35,Aib36,Leu37]-GLP-1-(7-37)-peptidyl-Ser-Phe-Leu amide (peptide)
peptide: H[Aib]EGTFTSDVSSYLEGEAVKEFIAWLVEK[Aib]LSFL-NH2
modifications: N-terminus assumed
SMILES: CC[C@H](C)[C@H](NC(=O)[C@H](Cc1ccccc1)NC(=O)[C@H](CCC(=O)O)NC(=O)[C@H](CCCCN)NC(=O)[C@@H](NC(=O)[C@H](C)NC(=O)[C@H](CCC(=O)O)NC(=O)CNC(=O)[C@H](CCC(=O)O)NC(=O)[C@H](CC(C)C)NC(=O)[C@H](Cc1ccc(O)cc1)NC(=O)[C@H](CO)NC(=O)[C@H](CO)NC(=O)[C@@H](NC(=O)[C@H](CC(=O)O)NC(=O)[C@H](CO)NC(=O)[C@@H](NC(=O)[C@H](Cc1ccccc1)NC(=O)[C@@H](NC(=O)CNC(=O)[C@H](CCC(=O)O)NC(=O)C(C)(C)NC(=O)[C@@H](N)Cc1c[nH]cn1)[C@@H](C)O)[C@@H](C)O)C(C)C)C(C)C)C(=O)N[C@@H](C)C(=O)N[C@@H](Cc1c[nH]c2ccccc12)C(=O)N[C@@H](CC(C)C)C(=O)N[C@H](C(=O)N[C@@H](CCC(=O)O)C(=O)N[C@@H](CCCCN)C(=O)NC(C)(C)C(=O)N[C@@H](CC(C)C)C(=O)N[C@@H](CO)C(=O)N[C@@H](Cc1ccccc1)C(=O)N[C@@H](CC(C)C)C(N)=O)C(C)C
B7: [Aib8,Glu23,Val25,Gln30,Glu34,Lys35,Aib36,Lys37]-GLP-1-(7-37)-peptidyl-Glu-Phe-Leu amide (peptide)
peptide: H[Aib]EGTFTSDVSSYLEGEAVKEFIQWLVEK[Aib]KEFL-NH2
modifications: N-terminus assumed
SMILES: CC[C@H](C)[C@H](NC(=O)[C@H](Cc1ccccc1)NC(=O)[C@H](CCC(=O)O)NC(=O)[C@H](CCCCN)NC(=O)[C@@H](NC(=O)[C@H](C)NC(=O)[C@H](CCC(=O)O)NC(=O)CNC(=O)[C@H](CCC(=O)O)NC(=O)[C@H](CC(C)C)NC(=O)[C@H](Cc1ccc(O)cc1)NC(=O)[C@H](CO)NC(=O)[C@H](CO)NC(=O)[C@@H](NC(=O)[C@H](CC(=O)O)NC(=O)[C@H](CO)NC(=O)[C@@H](NC(=O)[C@H](Cc1ccccc1)NC(=O)[C@@H](NC(=O)CNC(=O)[C@H](CCC(=O)O)NC(=O)C(C)(C)NC(=O)[C@@H](N)Cc1c[nH]cn1)[C@@H](C)O)[C@@H](C)O)C(C)C)C(C)C)C(=O)N[C@@H](CCC(N)=O)C(=O)N[C@@H](Cc1c[nH]c2ccccc12)C(=O)N[C@@H](CC(C)C)C(=O)N[C@H](C(=O)N[C@@H](CCC(=O)O)C(=O)N[C@@H](CCCCN)C(=O)NC(C)(C)C(=O)N[C@@H](CCCCN)C(=O)N[C@@H](CCC(=O)O)C(=O)N[C@@H](Cc1ccccc1)C(=O)N[C@@H](CC(C)C)C(N)=O)C(C)C
B8: [Aib8,Glu23,Val25,Lys30,Glu34,Lys35,Leu36,Lys37]-GLP-1-(7-37)-peptidyl-Glu-Phe-Leu amide (peptide)
peptide: H[Aib]EGTFTSDVSSYLEGEAVKEFIKWLVEKLKEFL-NH2
modifications: N-terminus assumed
SMILES: CC[C@H](C)[C@H](NC(=O)[C@H](Cc1ccccc1)NC(=O)[C@H](CCC(=O)O)NC(=O)[C@H](CCCCN)NC(=O)[C@@H](NC(=O)[C@H](C)NC(=O)[C@H](CCC(=O)O)NC(=O)CNC(=O)[C@H](CCC(=O)O)NC(=O)[C@H](CC(C)C)NC(=O)[C@H](Cc1ccc(O)cc1)NC(=O)[C@H](CO)NC(=O)[C@H](CO)NC(=O)[C@@H](NC(=O)[C@H](CC(=O)O)NC(=O)[C@H](CO)NC(=O)[C@@H](NC(=O)[C@H](Cc1ccccc1)NC(=O)[C@@H](NC(=O)CNC(=O)[C@H](CCC(=O)O)NC(=O)C(C)(C)NC(=O)[C@@H](N)Cc1c[nH]cn1)[C@@H](C)O)[C@@H](C)O)C(C)C)C(C)C)C(=O)N[C@@H](CCCCN)C(=O)N[C@@H](Cc1c[nH]c2ccccc12)C(=O)N[C@@H](CC(C)C)C(=O)N[C@H](C(=O)N[C@@H](CCC(=O)O)C(=O)N[C@@H](CCCCN)C(=O)N[C@@H](CC(C)C)C(=O)N[C@@H](CCCCN)C(=O)N[C@@H](CCC(=O)O)C(=O)N[C@@H](Cc1ccccc1)C(=O)N[C@@H](CC(C)C)C(N)=O)C(C)C

The binders below were run against human GLP-1 receptor (human, UniProt P43220) (assay: cell-based or functional assay).
For B1, the “CRE luciferase EC50, 0% HSA” value was 0.077 nM and the “CRE luciferase EC50, 1% HSA” value was 0.025 nM. B2 was tested, and the “CRE luciferase EC50, 0% HSA” value was 0.203 nM and the “CRE luciferase EC50, 1% HSA” value was 0.076 nM. B3 was tested, and the “CRE luciferase EC50, 0% HSA” value was 0.103 nM and the “CRE luciferase EC50, 1% HSA” value was 0.043 nM. In the case of B4, the “CRE luciferase EC50, 0% HSA” value is reported as 0.111 nM and the “CRE luciferase EC50, 1% HSA” value is reported as 0.036 nM. In the case of B5, the “CRE luciferase EC50, 0% HSA” value is reported as 0.474 nM and the “CRE luciferase EC50, 1% HSA” value is reported as 0.381 nM. With B6 the “CRE luciferase EC50, 0% HSA” value was 0.872 nM and the “CRE luciferase EC50, 1% HSA” value was 0.368 nM. With B7 the “CRE luciferase EC50, 0% HSA” value was 0.083 nM and the “CRE luciferase EC50, 1% HSA” value was 0.042 nM. With B8 the “CRE luciferase EC50, 0% HSA” value was 0.465 nM and the “CRE luciferase EC50, 1% HSA” value was 0.275 nM.
